Literature values as cited in patent US20200129630A1, “METHODS FOR TREATING CANCER” (BicycleRD Limited, priority 2018, published 2020).
Read-outs that look alike come from different tables or passages of the source.

B1: Cantuzumab mertansine: Anti-CanAg ADC with DM1, SPP cleavable linker (conjugate, chains of the INN, looked up)
VH: QVQLVQSGAEVKKPGETVKISCKASDYTFTYYGMNWVKQAPGQGLKWMGWIDTTTGEPTYAQKFQGRIAFSLETSASTAYLQIKSLKSEDTATYFCARRGPYNWYFDVWGQGTTVTVSS
VL: DIVMTQSPLSVPVTPGEPVSISCRSSKSLLHSNGNTYLYWFLQRPGQSPQLLIYRMSNLVSGVPDRFSGSGSGTAFTLRISRVEAEDVGVYYCLQHLEYPFTFGPGTKLELK
modifications: mertansine (DM1) via SPP linker
B2: Lorvotuzumab mertansine: anti-CD56 ADC with DM1, SPP cleavable linker (conjugate, chains of the INN, looked up)
VH: QVQLVESGGGVVQPGRSLRLSCAASGFTFSSFGMHWVRQAPGKGLEWVAYISSGSFTIYYADSVKGRFTISRDNSKNTLYLQMNSLRAEDTAVYYCARMRKGYAMDYWGQGTLVTVSS
VL: DVVMTQSPLSLPVTLGQPASISCRSSQIIIHSDGNTYLEWFQQRPGQSPRRLIYKVSNRFSGVPDRFSGSGSGTDFTLKISRVEAEDVGVYYCFQGSHVPHTFGQGTKVEIK
modifications: mertansine (DM1) via SPP linker

Legend:
[1] = animals, 58 to 228 mg/m^2 (0.85 and […]^2 DM1) weekly
[2] = not given; remark: listed apart in the source

| Molecule | DLT (Grade 3) (IV three-times a week) | MTD (IV three-times a week) | RP2D (every 3 weeks) | t1/2 (in vivo) | MTD (weekly administration) | axonal degeneration [1] | Recommended Phase 2 dose (RP2D) ([2]; 3 consecutive days every 3 weeks) | neurosensory AEs (all grades) ([2]; all patients) | Grade 3 or 4 TEAEs hyponatremia and dyspnea (each) ([2]; in vivo) | t½ ([2]; in vivo) |
| --- | --- | --- | --- | --- | --- | --- | --- | --- | --- | --- |
| B1 | transaminitis. Hepatic, hematological, and neurosensory | three-times a week [37], The MTD was 45 mg/m^2 | from this trial was 235 mg/m^2 every 3 weeks (~3.9 mg/m^2 | 40 h | 115 mg/m^2/week (~1.9 mg/m^2/week DM1) with DLTs | mild axonal degeneration | – | – | – | – |
| B2 | – | – | – | – | – | – | Recommended Phase 2 dose (RP2D) was 60 mg/m^2 | 17% | (each 8.2%)[38]. Lorvotuzumab mertansine is currently | approximately 40 hours |
